From US20230140293A1

Experiments:
[1] = biological target: CH0505TF.gly3.276 Env, pseudotyped virus produced in 293S GnTI- cells (HIV-1); experiment: cell-based or functional assay
[2] = biological target: CH0505TF.gly3.197 Env, pseudotyped virus produced in 293S GnTI- cells (HIV-1); experiment: cell-based or functional assay
[3] = biological target: HIV-1 426c.SM (N276D) Env on Env-pseudotyped virus produced in 293s/GnTI-/- cells (Man5-enrichment) (HIV-1); experiment: cell-based or functional assay
[4] = biological target: CH0505TF Env, pseudotyped virus produced in 293S GnTI- cells (HIV-1); experiment: cell-based or functional assay
[5] = biological target: CH0505TF.gly3.461 Env, Env-pseudotyped virus produced in 293T cells (HIV-1); experiment: cell-based or functional assay
[6] = biological target: HIV-1 Env 426c.TM (N276D.N460D.N463D), Env-pseudotyped virus produced in 293T cells (HIV-1 clade C strain 426c); experiment: cell-based or functional assay
[7] = biological target: HIV-1 Env 426c, Env-pseudotyped virus produced in 293T cells (HIV-1 clade C strain 426c); experiment: cell-based or functional assay
[8] = biological target: HIV-1 426c.DM (N460D/N463D) Env on Env-pseudotyped virus produced in 293T cells (HIV-1); experiment: cell-based or functional assay
[9] = biological target: HIV-1 426c.TM (N276D/N460D/N463D) Env on Env-pseudotyped virus produced in 293s/GnTI-/- cells (Man5-enrichment) (HIV-1); experiment: cell-based or functional assay
[10] = biological target: HIV-1 Env 426c.SM (N276D), Env-pseudotyped virus produced in 293T cells (HIV-1 clade C strain 426c); experiment: cell-based or functional assay
[11] = biological target: HIV-1 Env 426c.DM (N460D.N463D), Env-pseudotyped virus produced in 293S GnTI- cells (Man5-enriched) (HIV-1 clade C strain 426c); experiment: cell-based or functional assay
[12] = biological target: HIV-1 Env 426c.SM (N276D), Env-pseudotyped virus produced in 293S GnTI- cells (Man5-enriched) (HIV-1 clade C strain 426c); experiment: cell-based or functional assay
[13] = biological target: HIV-1 clade C strain 426c Env on Env-pseudotyped virus produced in 293s/GnTI-/- cells (Man5-enrichment) (HIV-1); experiment: cell-based or functional assay
[14] = biological target: HIV-1 426c.DM (N460D/N463D) Env on Env-pseudotyped virus produced in 293s/GnTI-/- cells (Man5-enrichment) (HIV-1); experiment: cell-based or functional assay
[15] = biological target: CH0505TF.gly3.276 Env, Env-pseudotyped virus produced in 293T cells (HIV-1); experiment: cell-based or functional assay
[16] = biological target: CH0505TF Env, Env-pseudotyped virus produced in 293T cells (HIV-1); experiment: cell-based or functional assay
[17] = biological target: CH0505TF.gly3.461 Env, pseudotyped virus produced in 293S GnTI- cells (HIV-1); experiment: cell-based or functional assay
[18] = biological target: HIV-1 Env 426c.DM (N460D.N463D), Env-pseudotyped virus produced in 293T cells (HIV-1 clade C strain 426c); experiment: cell-based or functional assay
[19] = biological target: CH0505TF.G458Y Env, pseudotyped virus produced in 293S GnTI- cells (HIV-1); experiment: cell-based or functional assay
[20] = biological target: HIV-1 426c.TM (N276D/N460D/N463D) Env on Env-pseudotyped virus produced in 293T cells (HIV-1); experiment: cell-based or functional assay
[21] = biological target: CH0505TF.gly4 Env, Env-pseudotyped virus produced in 293T cells (HIV-1); experiment: cell-based or functional assay
[22] = biological target: HIV-1 Env 426c.TM4 (S278R.G471S.N460D.N463D), Env-pseudotyped virus produced in 293S GnTI- cells (Man5-enriched) (HIV-1 clade C strain 426c); experiment: cell-based or functional assay
[23] = biological target: HIV-1 Env 426c.TM4 (S278R.G471S.N460D.N463D), Env-pseudotyped virus produced in 293T cells (HIV-1 clade C strain 426c); experiment: cell-based or functional assay
[24] = biological target: HIV-1 426c.SM (N276D) Env on Env-pseudotyped virus produced in 293T cells (HIV-1); experiment: cell-based or functional assay
[25] = biological target: HIV-1 Env 426c.TM (N276D.N460D.N463D), Env-pseudotyped virus produced in 293S GnTI- cells (Man5-enriched) (HIV-1 clade C strain 426c); experiment: cell-based or functional assay
[26] = biological target: HIV-1 Env 426c, Env-pseudotyped virus produced in 293S GnTI- cells (Man5-enriched) (HIV-1 clade C strain 426c); experiment: cell-based or functional assay
[27] = biological target: CH0505.w4.3 Env, Env-pseudotyped virus produced in 293T cells (HIV-1); experiment: cell-based or functional assay
[28] = biological target: HIV-1 clade C strain 426c Env on Env-pseudotyped virus produced in 293T cells (HIV-1); experiment: cell-based or functional assay
[29] = biological target: CH0505TF.G458Y Env, Env-pseudotyped virus produced in 293T cells (HIV-1); experiment: cell-based or functional assay
[30] = biological target: CH0505TF.gly4 Env, pseudotyped virus produced in 293S GnTI- cells (HIV-1); experiment: cell-based or functional assay
[31] = biological target: CH0505TF.gly3.197 Env, Env-pseudotyped virus produced in 293T cells (HIV-1); experiment: cell-based or functional assay
[32] = biological target: HIV-1 CH0505TF.S365P Env on Env-pseudotyped virus produced in 293T cells (HIV-1); experiment: cell-based or functional assay
[33] = biological target: HIV-1 CH0505TF (CH505 transmitted/founder) Env on Env-pseudotyped virus produced in 293T cells (HIV-1); experiment: cell-based or functional assay
[34] = biological target: HIV-1 CH0505TF.G458Y Env on Env-pseudotyped virus produced in 293T cells (HIV-1); experiment: cell-based or functional assay
[35] = biological target: HIV-1 CH0505TF.N280D Env on Env-pseudotyped virus produced in 293T cells (HIV-1); experiment: cell-based or functional assay
[36] = biological target: CH505 w030.28 gp120 (HIV-1); experiment: ELISA, gp120 on plate
[37] = biological target: CH505 w078.15 gp120 (HIV-1); experiment: ELISA, gp120 on plate
[38] = biological target: CH505 transmitted/founder (TF) gp120 (HIV-1); experiment: ELISA, gp120 on plate
[39] = biological target: CH505 w053.31 gp120 (HIV-1); experiment: ELISA, gp120 on plate
[40] = biological target: CH505 w053.16 gp120 (HIV-1); experiment: ELISA, gp120 on plate
[41] = biological target: CH505 w078.33 gp120 (HIV-1); experiment: ELISA, gp120 on plate
[42] = biological target: CH505 M11 gp120 (HIV-1); experiment: ELISA, gp120 on plate
[43] = biological target: CH505 w030.21 gp120 (HIV-1); experiment: ELISA, gp120 on plate
[44] = biological target: CH505 w020.14 gp120 (HIV-1); experiment: ELISA, gp120 on plate
[45] = biological target: CH505 w100.B6 gp120 (HIV-1); experiment: ELISA, gp120 on plate
[46] = biological target: CH505 M5 gp120 (HIV-1); experiment: ELISA, gp120 on plate

In the case of 3BNC117 (antibody), the IC50 (µg/ml) in TZM-bl [1] is reported as 0.001 µg/mL, the IC50 (µg/ml) in TZM-bl [2] is reported as 0.004 µg/mL and the ID50/IC50 in TZM-bl [3] is reported as 0.01 µg/mL. It also gave an IC50 (µg/ml) in TZM-bl [4] of 0.01 µg/mL, an IC50 (µg/ml) in TZM-bl [5] of 0.002 µg/mL and an IC50 (µg/ml) in TZM-bl [6] of 0.01 µg/mL. The IC50 (µg/ml) in TZM-bl [7] was 0.2 µg/mL, the ID50/IC50 in TZM-bl [8] was 0.13 µg/mL and the ID50/IC50 in TZM-bl [9] was 0.003 µg/mL. For the same substance, the IC50 (µg/ml) in TZM-bl [10] was 0.24 µg/mL, the IC50 (µg/ml) in TZM-bl [11] was 0.006 µg/mL and the IC50 (µg/ml) in TZM-bl [12] was 0.01 µg/mL. It also gave an ID50/IC50 in TZM-bl [13] of 0.02 µg/mL, an ID50/IC50 in TZM-bl [14] of 0.006 µg/mL and an IC50 (µg/ml) in TZM-bl [15] of 0.001 µg/mL. The IC50 (µg/ml) in TZM-bl [16] was 0.03 µg/mL, the IC50 (µg/ml) in TZM-bl [17] was 0.002 µg/mL and the IC50 (µg/ml) in TZM-bl [18] was 0.13 µg/mL. For the same substance, the IC50 (µg/ml) in TZM-bl [19] was 18 µg/mL, the ID50/IC50 in TZM-bl [20] was 0.01 µg/mL and the IC50 (µg/ml) in TZM-bl [21] was 0.001 µg/mL. It also gave an IC50 (µg/ml) in TZM-bl [22] of under 0.001 µg/mL, an IC50 (µg/ml) in TZM-bl [23] of 0.003 µg/mL and an ID50/IC50 in TZM-bl [24] of 0.24 µg/mL. For the same substance, the IC50 (µg/ml) in TZM-bl [25] was 0.003 µg/mL, the IC50 (µg/ml) in TZM-bl [26] was 0.02 µg/mL and the IC50 (µg/ml) in TZM-bl [27] was 0.02 µg/mL. The ID50/IC50 in TZM-bl [28] was 0.2 µg/mL, the IC50 (µg/ml) in TZM-bl [29] was over 25 µg/mL and the IC50 (µg/ml) in TZM-bl [30] was 0.001 µg/mL. It also gave an IC50 (µg/ml) in TZM-bl [31] of 0.005 µg/mL, an IC50 (µg/ml) in TZM-bl [32] of 0.01 µg/mL and an IC50 (µg/ml) in TZM-bl [33] of 0.03 µg/mL. The IC50 (µg/ml) in TZM-bl [34] was over 25 µg/mL and the IC50 (µg/ml) in TZM-bl [35] was over 25 µg/mL.
In the case of “CH103 lineage intermediate ancestor IA1 (antibody)”, the log AUC [36] is reported as 10.1 log AUC, the log AUC [37] is reported as 10.9 log AUC and the log AUC [38] is reported as 10.4 log AUC. The log AUC [39] was 13.4 log AUC, the log AUC [40] was 8.8 log AUC and the log AUC [41] was 8.2 log AUC. It also gave a log AUC [42] of 12.2 log AUC, a log AUC [43] of 11.8 log AUC and a log AUC [44] of 10.3 log AUC. For the same substance, the log AUC [45] was 12.2 log AUC and the log AUC [46] was 7 log AUC.
“CH103 lineage intermediate ancestor IA2 (antibody)” showed a log AUC [36] of 11.1 log AUC, a log AUC [37] of 11.5 log AUC and a log AUC [38] of 10.8 log AUC. It also gave a log AUC [39] of 13.3 log AUC, a log AUC [40] of 9.3 log AUC and a log AUC [41] of 9 log AUC. The log AUC [42] was 12.7 log AUC, the log AUC [43] was 11.5 log AUC and the log AUC [44] was 11 log AUC. The log AUC [45] was 12.1 log AUC and the log AUC [46] was 7.8 log AUC.
